Experimental data reported in patent US20050026828A1.

Experiments:
[1] = target: human prokineticin receptor 1 (human) (UniProt Q8TCW9); assay: cell-based or functional assay
[2] = target: human prokineticin receptor 2 (human) (UniProt Q8NFJ6); assay: cell-based or functional assay
Sequence of UniProt Q8NFJ6 (Q8NFJ6 whole entry): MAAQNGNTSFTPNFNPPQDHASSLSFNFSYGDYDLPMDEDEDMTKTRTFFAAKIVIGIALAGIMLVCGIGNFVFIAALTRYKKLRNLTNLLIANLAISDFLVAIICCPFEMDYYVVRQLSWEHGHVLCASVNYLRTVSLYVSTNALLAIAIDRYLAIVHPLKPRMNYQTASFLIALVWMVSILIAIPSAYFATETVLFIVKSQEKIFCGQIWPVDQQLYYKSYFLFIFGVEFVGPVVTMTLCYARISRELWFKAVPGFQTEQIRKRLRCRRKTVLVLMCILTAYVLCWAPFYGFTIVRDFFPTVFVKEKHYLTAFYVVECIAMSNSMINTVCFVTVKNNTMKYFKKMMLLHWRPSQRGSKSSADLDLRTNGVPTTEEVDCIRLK

Sequence of UniProt Q8TCW9 (Q8TCW9 whole entry I255M/S256T): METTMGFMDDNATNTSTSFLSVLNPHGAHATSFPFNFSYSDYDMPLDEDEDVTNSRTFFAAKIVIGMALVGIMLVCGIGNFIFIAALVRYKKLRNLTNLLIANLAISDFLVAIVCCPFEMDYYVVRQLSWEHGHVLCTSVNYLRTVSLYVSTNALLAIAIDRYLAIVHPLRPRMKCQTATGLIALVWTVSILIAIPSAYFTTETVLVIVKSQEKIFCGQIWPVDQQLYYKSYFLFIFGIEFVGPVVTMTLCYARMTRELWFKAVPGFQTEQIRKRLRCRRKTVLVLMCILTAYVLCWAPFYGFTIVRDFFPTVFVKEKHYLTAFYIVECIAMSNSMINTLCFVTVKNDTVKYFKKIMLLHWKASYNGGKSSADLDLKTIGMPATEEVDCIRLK

| Binder | Antagonistic Activity of PK mutants (Calcium Mobilization Assay), ligand PK1 [1] [nM] | Antagonistic Activity of PK mutants (Calcium Mobilization Assay), ligand PK2 [1] [nM] | Antagonistic Activity of PK mutants (Calcium Mobilization Assay), ligand PK1 [2] [nM] | Antagonistic Activity of PK mutants (Calcium Mobilization Assay), ligand PK2 [2] [nM] |
| --- | --- | --- | --- | --- |
| MV PK1 (ligand) MVITGACERDVQCGAGTCCAISLWLRGLRMCTPLGREGEECHPGSHKVPFFRKRKHHTCPCLPNLLCSRFPDGRYRCSMDLKNINF | 6 | 110 | 16 | 29 |
| Met PK1 (ligand) MAVITGACERDVQCGAGTCCAISLWLRGLRMCTPLGREGEECHPGSHKVPFFRKRKHHTCPCLPNLLCSRFPDGRYRCSMDLKNINF | 9 | 90 | 15 | 30 |
